System: Escherichia coli TOP10
Assay: shrunken log2 fold change of peptide-encoding DNA abundance (4.5 h post-induction vs induction); higher = less antimicrobial activity (less host growth inhibition)
Conditions: time post-induction: 4.5 h; library: site-saturation at positions 5, 18, 19, 20
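Note: peptides expressed intracellularly from a pBAD plasmid library in pooled LB shake-flask culture, induced with 0.3% L-arabinose, DNA abundance read by NGS, three biological replicates, DESeq2 with apeglm shrinkage.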

Sequence | shrunken log2 fold change
RRIRDRPPRLPRPRPRPPFRPRP | 0.126
RRIRNRPPRLPRPRPRPDDAPRP | 0.147
RRIRQRPPRLPRPRPRPMCCPRP | 0.0301
RRIRRRPPRLPRPRPRPGNKPRP | -0.176
RRIRKRPPRLPRPRPRPSHAPRP | 0.155
RRIRERPPRLPRPRPRPNEIPRP | -0.181
RRIRGRPPRLPRPRPRPWTMPRP | 0.033
RRIRCRPPRLPRPRPRPTGTPRP | 0.0453
RRIRIRPPRLPRPRPRPYCLPRP | -0.259
RRIRLRPPRLPRPRPRPNGYPRP | -0.315
RRIRSRPPRLPRPRPRPCQSPRP | -0.01
RRIRPRPPRLPRPRPRPASPPRP | 0.287
RRIRERPPRLPRPRPRPGKHPRP | -0.324
RRIRVRPPRLPRPRPRPKFDPRP | 0.21
RRIRNRPPRLPRPRPRPQTLPRP | -0.513
RRIRERPPRLPRPRPRPNCIPRP | -0.712
RRIRVRPPRLPRPRPRPSRGPRP | 0.413
RRIRRRPPRLPRPRPRPSPIPRP | 0.11
RRIRVRPPRLPRPRPRPHGPPRP | -0.156
RRIRRRPPRLPRPRPRPLSEPRP | 0.382

Sequence | shrunken log2 fold change
RRIRIRPPRLPRPRPRPQVCPRP | 0.0108
RRIRSRPPRLPRPRPRPKNLPRP | -0.599
RRIRPRPPRLPRPRPRPCECPRP | -0.014
RRIRSRPPRLPRPRPRPKQYPRP | -0.361
RRIRARPPRLPRPRPRPWVQPRP | -0.0652
RRIRDRPPRLPRPRPRPHTKPRP | 0.0345
RRIRPRPPRLPRPRPRPICAPRP | 0.0637
RRIRCRPPRLPRPRPRPGTIPRP | 0.00164
RRIRNRPPRLPRPRPRPWSKPRP | -0.167
RRIRLRPPRLPRPRPRPWGYPRP | -0.359
RRIRHRPPRLPRPRPRPCVWPRP | 0.0245
RRIRTRPPRLPRPRPRPKVAPRP | 0.0317
RRIRERPPRLPRPRPRPRHEPRP | -0.304
RRIRDRPPRLPRPRPRPSHHPRP | -0.344
RRIRARPPRLPRPRPRPKYYPRP | -0.179
RRIRARPPRLPRPRPRPMIAPRP | 0.263
RRIRLRPPRLPRPRPRPIKHPRP | -0.821
RRIRVRPPRLPRPRPRPGINPRP | -0.0188
RRIRGRPPRLPRPRPRPTCKPRP | 0.57
RRIRIRPPRLPRPRPRPCKPPRP | -0.19

Sequence | shrunken log2 fold change
RRIRMRPPRLPRPRPRPMTHPRP | 0.173
RRIRNRPPRLPRPRPRPDFLPRP | -0.342
RRIRHRPPRLPRPRPRPASHPRP | 0.0269
RRIRKRPPRLPRPRPRPMSSPRP | 0.0811
RRIRERPPRLPRPRPRPQYPPRP | -0.208
RRIRLRPPRLPRPRPRPSGNPRP | -0.111
RRIRDRPPRLPRPRPRPARMPRP | 0.584
RRIRHRPPRLPRPRPRPDKLPRP | -0.0246
RRIRPRPPRLPRPRPRPHQDPRP | -0.362
RRIRRRPPRLPRPRPRPMDIPRP | -0.168
RRIRCRPPRLPRPRPRPEGPPRP | 0.261
RRIRMRPPRLPRPRPRPMENPRP | 0.76
RRIRWRPPRLPRPRPRPDCMPRP | 0.259
RRIRFRPPRLPRPRPRPLYDPRP | -0.358
RRIRNRPPRLPRPRPRPLMKPRP | -0.431
RRIRVRPPRLPRPRPRPCWGPRP | -0.0908
RRIRSRPPRLPRPRPRPLLGPRP | 0.0218
RRIRSRPPRLPRPRPRPIWMPRP | -0.000641
RRIRKRPPRLPRPRPRPELYPRP | 0.0137
RRIRIRPPRLPRPRPRPEHCPRP | 0.0755

— the supplement of paper PMC9112550, “Optimization of the antimicrobial peptide Bac7 by deep mutational scanning” (BMC Biology, 2022)
